Measured values taken from patent US20050143472A1, “Novel treatment for pathologies associated with oxidative damage” (priority 2002, published 2005).

Substrate: NCCCNCCCCNCCCN
Experiment: purified protein, by the assay type
Conditions: other: apparent value, air-saturated 50 mM KH2PO4/KOH buffer pH 7.6, [O2] 237 μM

B1: mPAO (Mus musculus) (protein)
chain: MAFPGPRVLVVGSGIAGLGAAQKLCSHRAAPHLRVLEATASAGGRIRSERCFGGVVELGAHWIHGPSQDNPVFQLAAEFGLLGEKELSEENQLVDTGGHVALPSMIWSSSGTSVSLELMTEMARLFYGLIERTREFLNESETPMASVGEFLKKEISQQVASWTEDDEDTRKRKLAILNTFFNIKCCVSGTHSMDLVALAPFGEYTVLPGLDCILAGGYQGLTDRILASLPKDTVAFDKPVKTIHWNGSFQEAAFPGETFPVLVECEDGARLPAHHVIVTVPLGFSKEHQDTFFEPPLPAKKAEAIKKLGFGTNNKIFLEFEEPFWEPDCQFIQVVWEDTSPLQDTALSLQDTWFKKLIGFLVQPSFESSHVLCGFIAGLESEFMETLSDEEVLLSLTQVLRRVTGNPQLPAAKSVLSSRWHSAPYTRGSYSYVAVGSTGDDLDLMAQPLPADGTGTQLQVLFAGEATHRTFYSTTHGALLSGWREADRLIGLWDSQAEQSRPRL
  kcat: 0.175 s⁻¹
  kcat/Km: 247 M⁻¹ s⁻¹
